Data as given in patent US20090269320.
Positions count from the first letter of the chain named.

Legend:
rPEDF variant S227A = test system: T1, rPEDF variant S227A
T1 sequence: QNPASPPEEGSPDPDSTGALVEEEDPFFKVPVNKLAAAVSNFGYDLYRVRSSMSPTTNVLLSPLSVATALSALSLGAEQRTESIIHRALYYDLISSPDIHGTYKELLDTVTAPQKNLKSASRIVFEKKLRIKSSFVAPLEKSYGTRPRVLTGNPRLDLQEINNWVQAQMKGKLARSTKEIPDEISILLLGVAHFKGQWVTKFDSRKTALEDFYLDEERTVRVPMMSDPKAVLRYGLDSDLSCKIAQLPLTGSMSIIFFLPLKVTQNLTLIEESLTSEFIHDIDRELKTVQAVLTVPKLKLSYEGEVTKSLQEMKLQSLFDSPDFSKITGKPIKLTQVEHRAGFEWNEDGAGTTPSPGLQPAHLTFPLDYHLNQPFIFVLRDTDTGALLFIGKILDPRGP

[1] = test system: T2, PEDF purified from human plasma
T2 sequence: T1 sequence with A208S

rPEDF variant S227E = test system: T3, rPEDF variant S227E
T3 sequence: T1 sequence with A208E

[2] = test system: T4, recombinant PEDF (recombinant wild-type human pigment epithelium derived factor)
T4 sequence: T1 sequence with A208S

rPEDF variant S114A = test system: T5, rPEDF variant S114A
T5 sequence: T1 sequence with S95A, A208S

rPEDF variant S114E = test system: T6, rPEDF variant S114E
T6 sequence: T1 sequence with S95E, A208S

[3] = test system: T7, rPEDF double variant S24,114A
T7 sequence: T1 sequence with S5A, S95A, A208S

rPEDF variant S24A = test system: T8, rPEDF variant S24A
T8 sequence: T1 sequence with S5A, A208S

rPEDF variant S24E = test system: T9, rPEDF variant S24E
T9 sequence: T1 sequence with S5E, A208S

[4] = test system: T10, rPEDF double variant S24,114E
T10 sequence: T1 sequence with S5E, S95E, A208S

Substance	in vitro PKA phosphorylation (autoradiography) (rPEDF variant S227A)	in vitro PKA phosphorylation ([γ32P]-ATP, heparin, autoradiography) [1]	in vitro PKA phosphorylation (autoradiography) (rPEDF variant S227E)	in vitro PKA phosphorylation ([γ32P]-ATP, heparin, autoradiography) [2]	in vitro CK2 phosphorylation (autoradiography) (rPEDF variant S114A)	in vitro CK2 phosphorylation (autoradiography) (rPEDF variant S114E)	in vitro CK2 phosphorylation (autoradiography) [3]	in vitro CK2 phosphorylation ([γ32P]-ATP, autoradiography) [1]	in vitro CK2 phosphorylation (autoradiography) (rPEDF variant S24A)	in vitro CK2 phosphorylation ([γ32P]-ATP, autoradiography) [2]	in vitro CK2 phosphorylation (autoradiography) (rPEDF variant S24E)	in vitro CK2 phosphorylation (autoradiography) [4]
catalytic subunit of PKA	Mutation of Ser227 to Ala or to Glu completely abolished PKA phosphorylation	Both rPEDF and plPEDF were equally phosphorylated by PKA in the presence of heparin	Mutation of Ser227 to Ala or to Glu completely abolished PKA phosphorylation	Both rPEDF and plPEDF were equally phosphorylated by PKA in the presence of heparin								
recombinant human CK2 (casein kinase 2)					The S114A variant significantly reduced CK2 phosphorylation	both S114E and S24,114E mutations significantly increased CK2 phosphorylation compared with CK2 phosphorylation of rPEDF	the double variant S24,114A almost completely abolished this phosphorylation	Both rPEDF and plPEDF were phosphorylated by CK2; CK2 phosphorylation of rPEDF was stronger than the phosphorylation of plPEDF	Mutation of S24A significantly reduced CK2 phosphorylation	Both rPEDF and plPEDF were phosphorylated by CK2; CK2 phosphorylation of rPEDF was stronger than the phosphorylation of plPEDF	the S24E mutation reduced phosphorylation only to a moderate extent	both S114E and S24,114E mutations significantly increased CK2 phosphorylation compared with CK2 phosphorylation of rPEDF
